From patent US20230080534A1, “SEMG2 ANTIBODY AND USE THEREOF” (SHANGHAI BIOTROY BIOTECHNIQUE CO., LTD., priority 2020, published 2023)

What was measured:
SEMG2 = target: T1, SEMG2 (Homo sapiens, UniProt Q02383); assay: Competition ELISA of fully human antibody with murine antibodies for SEMG2; assay type: binding; details: concentration gradient of fully human antibody mixed with murine antibody
T1 sequence (Q02383 24-582): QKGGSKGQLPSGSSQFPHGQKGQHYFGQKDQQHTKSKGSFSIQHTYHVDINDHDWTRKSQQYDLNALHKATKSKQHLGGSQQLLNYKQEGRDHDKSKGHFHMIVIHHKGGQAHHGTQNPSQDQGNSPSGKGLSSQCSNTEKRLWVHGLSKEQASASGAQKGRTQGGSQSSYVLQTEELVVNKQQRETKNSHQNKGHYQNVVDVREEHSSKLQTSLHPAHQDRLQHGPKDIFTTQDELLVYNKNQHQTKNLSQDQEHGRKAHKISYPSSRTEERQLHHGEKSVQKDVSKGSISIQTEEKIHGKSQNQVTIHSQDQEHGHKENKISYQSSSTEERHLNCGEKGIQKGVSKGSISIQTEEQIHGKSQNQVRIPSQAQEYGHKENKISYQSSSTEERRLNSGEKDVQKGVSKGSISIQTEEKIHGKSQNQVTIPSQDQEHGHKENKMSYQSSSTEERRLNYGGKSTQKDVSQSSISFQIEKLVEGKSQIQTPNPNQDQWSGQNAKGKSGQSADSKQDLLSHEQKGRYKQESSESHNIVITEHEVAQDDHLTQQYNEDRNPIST
Protocol: The binding abilities of fully human antibodies and murine antibodies to SEMG2 were tested, that is, murine antibodies MM02 and MM05 and concentration gradient diluted filly human antibodies H88-93 were mixed and added as primary antibodies in a 96-well microplate coated with SEMG2. Murine monoclonal antibody bound to SEMG2 was measured using anti-mouse HRP secondary antibody. The blocking percentage is calculated according to the following formula:
Blocking percentage=[1−(A450 of experimental antibody group-Blank control)/(A450 of positive control antibody−A450 of empty control)]×100%

[1] = system: A375 human melanoma cells; assay: Tumor cell killing by activated PBMC, caspase-3/7 apoptosis; assay type: cell-based; details: A375, SEMG2-positive, co-culture with activated PBMC 10:1
Protocol: (§1) To test the above hypothesis, the effects of different epitope-specific antibodies on tumor cell killing by activated PBMC were compared. Specifically, A375 human melanoma and LOVO human colorectal cancer cells highly expressing SEMG2 were seeded in 96-well plate. Human peripheral blood mononuclear cells (PBMC; #70025, Stem Cell) were activated with 100 ng/mL of CD3 antibody, 100 ng/mL, of CD28 antibody, and 1.0 ng/mL of IL2 (#317303; #302913; #589102, BioLegend), respectively, and co-cultured with the above tumor cells at a ratio of 10:1 in presence of fluorescent caspase-3/7 substrate (#4440, Essen Bioscience). After 1.0 hours, cells were observed under fluorescence microscope.
(§2) To verify the above hypothesis, tumor cells with high SEMG2 expression (A375, LOVO) and SEMG2-negative tumor cells (DLD1, NCM460 and NCI-H1975) were selected. Different antibodies (irrelevant mouse IgG antibodies, MM02 or MM05 antibodies) were added during the PBMC killing experiments for the tumor cells.
(§3) To verify the effect of the human antibodies on the function of activated PBMC on tumor cell killing, A375 and LOVO cells were co-cultured with activated PBMC, and H88-93, H88-96, or H88-67 antibody was added at the same time, and the apoptosis ratio of tumor cells were detected.

[2] = system: LOVO human colorectal cancer cells; assay: as above; assay type: cell-based; details: SEMG2-positive, co-culture with activated PBMC 10:1
Protocol: as §1, §2, §3

[3] = target: T2, binding between SEMG2 and CD27 (Homo sapiens, UniProt Q02383); assay: Antibody blocking ELISA of SEMG2 binding to CD27-Fc; details: antibody 10 μg/mL
T2 sequence (Q02383 24-582): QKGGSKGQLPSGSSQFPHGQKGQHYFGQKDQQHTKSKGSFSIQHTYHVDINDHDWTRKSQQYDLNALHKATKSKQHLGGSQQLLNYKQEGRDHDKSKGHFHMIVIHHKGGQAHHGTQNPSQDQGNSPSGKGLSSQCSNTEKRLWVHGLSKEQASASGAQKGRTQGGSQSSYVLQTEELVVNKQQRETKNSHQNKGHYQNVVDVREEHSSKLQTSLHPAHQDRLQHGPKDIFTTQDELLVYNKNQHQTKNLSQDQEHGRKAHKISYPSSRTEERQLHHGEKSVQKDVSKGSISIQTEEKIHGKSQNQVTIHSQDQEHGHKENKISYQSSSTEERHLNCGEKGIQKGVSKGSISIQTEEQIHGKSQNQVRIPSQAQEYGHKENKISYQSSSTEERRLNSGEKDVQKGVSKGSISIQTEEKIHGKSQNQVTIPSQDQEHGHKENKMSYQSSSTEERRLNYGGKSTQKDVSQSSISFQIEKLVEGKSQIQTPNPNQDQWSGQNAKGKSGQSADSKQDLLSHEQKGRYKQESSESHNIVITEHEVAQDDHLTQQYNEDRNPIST
From the text: Because SEMG2 (497-509) sequence fragment is the key epitope of SEMG2 binding to CD27, and has a relatively short sequence, so SEMG2 (497-509) was used as an immunogen to prepare antibodies, which is theoretically easier to obtain functional antibody molecules with the function of blocking the binding between SEMG2 and CD27 than using full-length SEMG2 to prepare antibodies. For direct comparison, the differences in effective concentration of producing antibody by the two methods were verified using ELISA in the examples. Antibodies produced with SEMG2 (497-509) as immunogen and antibodies produced with full-length SEMG2 were added into the enzyme-linked immunosorbent assay (ELISA) reaction system at different concentrations (10^-2, 10^-1, 10^0, 10^1, 10^2, 10^3, 10^4 μg/mL), and the ELISA binding values were measured. The specific steps of enzyme-linked immunosorbent assay are as follows: (1) Dissolve SEMG2 protein antigen with 50 mM carbonate coating buffer (pH 9.6) to make the antigen concentration 10 μg/mL, and add into 96-well ELISA plate (purchased from Corning) at 100 μL/well, place at 4° C. overnight. (2) After discarding the coating solution on the next day, wash with PBST for three times, add 150 μL of 1% BSA to each well, and block for 2 hours at 37° C. […] (4) After washing for 5 times with PBST, add 100 of diluted HRP-labeled anti-human Fe secondary antibody, and incubate at 37° C. for 1 hour. (5) After washing with PBST for 5 times, 20 min after developing with chromogenic agent, the A450 absorption value was read using the microplate reader.
The SEMG2 (497-509) sequence was used to synthesize a polypeptide and coupled to a VLP carrier for immunization; HEK293 cells were used to express the full-length SEMG2 protein, and the purity was tested to reach 92%, and the binding activity of SEMG2 protein to CD27 was verified by ELISA. The protein and polypeptide antigens were used to immunize 10 mice respectively, and multiple immunizations were performed to enhance the effect: (1) The first immunization, 50 μg/mice of antigen, multiple subcutaneous injections together with Freund's complete adjuvant, with an interval of 3 weeks; (2) the second immunization; the same dosage and route as above, with incomplete Freund's adjuvant, and with an interval of 3 weeks; (3) the third immunization, the same dosage as above, without adjuvant, intraperitoneal injection with an interval of 3 weeks; (4) the booster immunization, the dose is 50 μg, intraperitoneal injection. 3 days after the last injection, blood was collected to measure its titer and the immune effect, and mice with higher titers were selected for hybridoma fusion screening. After subcloning, the binding of the monoclonal antibodies to the target antigens was detected by ELISA, and the function of different monoclonal antibodies in blocking the binding between SEMG2 and CD27 was measured by ELISA.
First, SEMG2(497-509) epitope-specific antibodies (for example, MM02, MM05) were compared with other epitope-specific antibodies (for example, HPA042767) for their function in blocking binding between SEMG2 and CD27 at different concentration ranges. […] The blocking function of different antibodies (irrelative mouse IgG, MM02, MM05, HPA042767) on binding between SEMG2 and CD27 was analyzed by the ELISA experiment as described in Example 11.
Further, the effects of different antibodies on the binding between SEMG2 and CD27 were compared under the condition of the same antibody concentration. In the ELISA, the same concentration (10 μg/mL) of antibody was used, and the strength of the binding between SEMG2 and CD27 was measured. […]

SEMG2(497-509) fragment = target: T3, SEMG2(497-509) fragment (Homo sapiens, UniProt Q02383); assay: ELISA binding of antibodies to SEMG2(497-509) epitope
T3 construct: SEMG2(497-509) fragment and SEMG2(563-574) fragment were immobilized on the ELISA plate; made in house; host or cells: chemical synthesis
Protocol: Specifically, SEMG2 full-length protein (1-582), SEMG2(354-403) fragment, SEMG2(442-453) fragment, SEMG2(497-509) fragment and SEMG2(563-574) fragment were immobilized on the ELISA plate, and the same concentration of antibodies (MM02, MM05, MM07, MM08, MM13, MM14, HPA042767 and HPA042835) were added. Anti-mouse or anti-rabbit secondary antibodies were then used to detect the corresponding bound antibodies. MM02, MM05, MM07, MM08, MM13, and MM14 all bound to SEMG2(497509) epitope, HPA042767 bound to SEMG2 (354-403) epitope, and HPA042835 bound to […], while none of the antibodies bound to SEMG2 (442-453) control fragment.
Specifically, the preparation of polypeptide antigens and the screening of human natural antibody library were firstly performed. The SEMG2(497-509) polypeptide was synthesized and coupled to BSA and KLH, respectively, and screened in a fully human phage display antibody library. ELISA was used to select clones that bind to antigenic epitopes for preliminary screening. Different unique sequences were obtained after sequencing single colonies, sorted according to affinity sorting, and full-length antibodies were constructed from antigen-binding fragments (Fab) with relatively high affinity. The binding ability and blocking function tests were performed after purification, that is, the effect of the antibody on binding between SEMG2 and CD27 was determined by the ELISA experiment.

B1: H88-93: fully human antibody from phage library against SEMG2(497-509), VH SEQ ID NO:55, VL SEQ ID NO:58 (antibody, V domains shown)
VH: QITLKESGPTLVKPTQTLTLTCNFSGFSLTTSGVGVAWIRQPPGKALEWLALIYWDDDQRYSPSLKSRLSVTKHTSKDQVVLTMTNVGPVDTATYYCAHLSYGPGWGYYMDVWGNGTMVTVSS
VL: EIVLTQSPGTLSLSPGERASLSCRASQSVRNNYLAWYQQKPGQAPRLLIFGASNRATGIPDTFSGSGSGTDFTLTISRLEPEDFAVYYCQQYGHSPITFGQGTRLEIK
modifications: UNSURE (1)..(123) VH; UNSURE (1)..(108) VL
SEMG2
  competition with MM02 and MM05 for binding to SEMG2: competes
[1]
  apoptosis tumor cell ratio / killing by activated PBMC: significantly promote the killing
[2]
  apoptosis tumor cell ratio / killing by activated PBMC: significantly promote the killing
[3]
  effect on the binding between SEMG2 and CD27: inhibited the binding
SEMG2(497-509) fragment
  binding to SEMG2(497-509) epitope: bind
